Several values for one entry are separate records, joined by “and”; a condition that tells them apart may be missing. Equal entries are not always repeated.
Legend:
[1] = biological target: enterotoxin CFA/II(LT-II) (Escherichia coli, UniProt P0CK94); format: cell-based, E. coli
[2] = system: enterotoxin LT-I; set-up: species or system E. coli; details: in vivo, po
[3] = biological target: cholera toxin CT (Vibrio cholerae, UniProt P01556); format: cell-based
[4] = biological target: cholera toxin B-subunits (Vibrio cholerae, UniProt P01556); format: binding
[5] = biological target: enterotoxin CFA/I(LT-1) (Escherichia coli, UniProt D0Z6T1); format: cell-based, E. coli

B1: lactoferrin (protein, UniProt P24627 20-708, looked up)
Lactotransferrin: APRKNVRWCTISQPEWFKCRRWQWRMKKLGAPSITCVRRAFALECIRAIAEKKADAVTLDGGMVFEAGRDPYKLRPVAAEIYGTKESPQTHYYAVAVVKKGSNFQLDQLQGRKSCHTGLGRSAGWIIPMGILRPYLSWTESLEPLQGAVAKFFSASCVPCIDRQAYPNLCQLCKGEGENQCACSSREPYFGYSGAFKCLQDGAGDVAFVKETTVFENLPEKADRDQYELLCLNNSRAPVDAFKECHLAQVPSHAVVARSVDGKEDLIWKLLSKAQEKFGKNKSRSFQLFGSPPGQRDLLFKDSALGFLRIPSKVDSALYLGSRYLTTLKNLRETAEEVKARYTRVVWCAVGPEEQKKCQQWSQQSGQNVTCATASTTDDCIVLVLKGEADALNLDGGYIYTAGKCGLVPVLAENRKSSKHSSLDCVLRPTEGYLAVAVVKKANEGLTWNSLKDKKSCHTAVDRTAGWNIPMGLIVNQTGSCAFDEFFSQSCAPGADPKSRLCALCAGDDQGLDKCVPNSKEKYYGYTGAFRCLAEDVGDVAFVKNDTVWENTNGESTADWAKNLNREDFRLLCLDGTRKPVTEAQSCHLAVAPNHAVVSRSDRAAHVKQVLLHQQALFGKNGKNCPDKFCLFKSETKNLLFNDNTECLAKLGGRPTYEEYLGTEYVTAIANLKKCSTSPLLEACAFLTR
neutralization of the toxicity of LT-II against CHO-Kl cells (morphological alteration) [1]: neutralized the toxicity | Rate of diarrhea [2]: 40% and 20% | neutralization of the toxicity of CT against CHO-Kl cells (morphological alteration) [3]: neutralized the toxicity | interference with the binding of the cholera toxin B-subunits to GM1 [4]: interfered with the binding | neutralization of the toxicity of LT-I against CHO-Kl cells (morphological alteration) [5]: neutralized the toxicity

Reference: patent publication US5260280A (priority 1989, dated 1993)
